Results published in PMC5182127, “Cellular and viral peptides bind multiple sites on the N‐terminal domain of clathrin” (Traffic (Copenhagen, Denmark), 2016).
Changes are numbered by the printed parent chain. Names and notes keep the numbering of the source.

T1: clathrin heavy chain N‐terminal domain (1‐363) (bovine, UniProt P49951 1-363)
T1 construct: also called NTD; clathrin NTD; source: E. coli BL21(DE3) pLysS, purified (glutathione Sepharose, thrombin cleavage, Superdex 200); not shown: GST, N-terminal, cleaved
T1 sequence (looked up): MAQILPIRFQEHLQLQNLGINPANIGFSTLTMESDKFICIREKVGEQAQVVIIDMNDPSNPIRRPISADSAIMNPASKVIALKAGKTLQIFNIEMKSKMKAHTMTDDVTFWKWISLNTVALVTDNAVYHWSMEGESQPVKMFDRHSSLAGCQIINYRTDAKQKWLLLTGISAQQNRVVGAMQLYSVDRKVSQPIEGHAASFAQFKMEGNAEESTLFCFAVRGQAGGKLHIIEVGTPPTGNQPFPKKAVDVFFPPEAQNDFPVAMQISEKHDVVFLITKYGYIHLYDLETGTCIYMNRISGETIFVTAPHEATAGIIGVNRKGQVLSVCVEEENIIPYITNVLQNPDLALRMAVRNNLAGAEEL

T2: GST‐AmphCBM (human, UniProt P49418 349-358)
T2 construct: also called human amphiphysin I CBM; source: E. coli BL21(DE3) pLysS, purified (glutathione resin, SEC); not shown: GST, N-terminal, kept
T2 chain (looked up): ETLLDLDFDP

T3: GST‐AP2CBM (human, UniProt P63010 629-640)
T3 construct: also called CBM from flexible hinge of β2 adaptin subunit of human AP2; source: E. coli BL21(DE3) pLysS, purified (glutathione resin, SEC); not shown: GST, N-terminal, kept
T3 chain (looked up): GDLLNLDLGPPV

T4: GST‐Amph4T1 (rat, UniProt O08838 349-356)
T4 construct: also called extended amphiphysin CBM construct; source: E. coli BL21(DE3) pLysS, purified (glutathione resin, SEC)
T4 chain: ETLLDLDFLERPHRD

T5: GST‐AP2arrS (human, UniProt P63010 623-632)
T5 construct: also called extended arrestin motif (LLGDLL); source: E. coli BL21(DE3) pLysS, purified (glutathione resin, SEC); not shown: GST, N-terminal, kept
T5 chain (looked up): SQGDLLGDLL

B1: HDAg‐L2pep (peptide)
peptide: SPRLPLLES
notes: also called peptide of the putative CBM of HDAg-L2; source: synthetic peptide, bought: Designer Bioscience
B2: AP2CBMpep (peptide)
peptide: CGDLLNLDLG
notes: also called peptide of the β2 adaptin CBM; source: synthetic peptide, bought: Designer Bioscience
B3: AmphCBMpep (peptide)
peptide: ETLLDLDFDP
notes: also called peptide of the amphiphysin CBM; source: synthetic peptide, bought: Genscript
B4: His‐NTD‐NEMO Q89A + F91K (other, UniProt P49951 1-363, looked up)
chain: MAQILPIRFQEHLQLQNLGINPANIGFSTLTMESDKFICIREKVGEQAQVVIIDMNDPSNPIRRPISADSAIMNPASKVIALKAGKTLAIKNIEMKSKMKAHTMTDDVTFWKWISLNTVALVTDNAVYHWSMEGESQPVKMFDRHSSLAGCQIINYRTDAKQKWLLLTGISAQQNRVVGAMQLYSVDRKVSQPIEGHAASFAQFKMEGNAEESTLFCFAVRGQAGGKLHIIEVGTPPTGNQPFPKKAVDVFFPPEAQNDFPVAMQISEKHDVVFLITKYGYIHLYDLETGTCIYMNRISGETIFVTAPHEATAGIIGVNRKGQVLSVCVEEENIIPYITNVLQNPDLALRMAVRNNLAGAEELKSSVVGSERKRGMQLEDLKQQLQQAEEALVAKQEVIDKLKEEAEQHKIVMETVPVLKAQADIYKADFQAERQAREKLAEKKELLQEQLEQLQREYSKLKASCQESARIEDMRKRHVEVSQ
notes: also called clathrin box mutant; not shown: His6, N-terminal, kept
B5: His‐NTD‐NEMO Q89A + F91K + F9W (other, UniProt P49951 1-363, looked up)
chain: B4 chain with F9W
notes: also called mutant with disrupted clathrin and Royle boxes; printed in the text as Q98A + F91K + F9W; not shown: His6, N-terminal, kept
B6: His‐NTD‐NEMO Q192Y (other, UniProt P49951 1-363, looked up)
chain: B4 chain with A89Q, K91F, Q192Y
notes: also called arrestin box mutant; not shown: His6, N-terminal, kept
B7: His‐NTD‐NEMO Q89A + F91K + Q192Y (other, UniProt P49951 1-363, looked up)
chain: B4 chain with Q192Y
notes: also called His‐NTD‐NEMO mutated at both the clathrin and arrestin boxes; not shown: His6, N-terminal, kept
B8: AmphCBMlongpep (peptide)
peptide: ETLLDLDFDPFK
notes: source: synthetic peptide, bought: Genscript
B9: HDAg‐L1pep (peptide)
peptide: SDILFPADS
notes: also called peptide of the putative CBM of HDAg-L1; source: synthetic peptide, bought: Designer Bioscience
B10: Amph4T1pep (peptide)
peptide: ETLLDLDFLE
notes: as for B8

Tests used:
Details in all cases: both partners purified
[1] = molecular target: T1, clathrin heavy chain N‐terminal domain …; test: crystal structure; co-crystals of NTD (14 or 20 mg/mL) with 3.4-3.6 mM peptide, sitting drop, 20°C, sodium malonate; peptide also in the cryoprotectant
[2] = molecular target: T2, GST‐AmphCBM; test: pull-down; 500 µg GST or GST-peptide bait on glutathione sepharose 4B; 0.1 mg/mL wild-type or mutant His-NTD-NEMO as prey, 2 h, 4°C; 25 mM HEPES-KOH, 125 mM potassium acetate, 5 mM magnesium acetate, 2 mM EDTA, 2 mM EGTA, 1 mM DTT, pH 7.2; washes with PBS; immunoblot with anti-clathrin NTD antibody
[3] = molecular target: T3, GST‐AP2CBM; test: as above
[4] = molecular target: T4, GST‐Amph4T1; test: as above
[5] = molecular target: T5, GST‐AP2arrS; test: as above

Row | Binder | binding result [1] | binding result [2] | binding result [3] | binding result [4] | other results
1 | B1 | binds |  |  |  | 
2 | B2 | binds |  |  |  | 
3 | B3 | binds |  |  |  | 
4 | B4 |  | binds | binds | binds | 
5 | B5 |  |  | binds | binds | binding result [5]: binds
6 | B6 |  | binds | binds | binds | 
7 | B7 |  | binds |  | binds | 
8 | B8 | binds |  |  |  | 
9 | B9 | binds |  |  |  | 
10 | B10 | binds |  |  |  | 
